Literature values, collected in patent US20240325609A1, “POLYPEPTIDE MONOLITHS” (Trustees of Tufts College, priority 2015, published 2024).

Conditions: room temperature for 14 days, not encapsulated

HRP not encapsulated in silk: free horse radish peroxidase enzyme
shelf stability of HRP: not shelf-stable
